B1: CCDC89 (parent)
chain: LNAELEEKMMQEAEKLKAQGEYSR

Variants of: B1
Assay: protein stability index of a GFP-peptide fusion (GPS, HEK-293T) (PSI 1-6); higher = more stable
Conditions: c terminus: a fixed tail appended
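Further: lentivirally expressed fusions sorted by FACS into six bins by GFP to DsRed ratio, PSI derived from sequencing read proportions per bin multiplied by bin number.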

Variant | protein stability index
LNAELEEKPMQEAEKLKAQGEYSR [M9P] | 5.53
LNAELEEKQMQEAEKLKAQGEYSR [M9Q] | 4.79
LNAELEEKRMQEAEKLKAQGEYSR [M9R] | 5.12
LNAELEEKTMQEAEKLKAQGEYSR [M9T] | 5.23
LNAELEEKWMQEAEKLKAQGEYSR [M9W] | 5.04
LNAELEEKMAQEAEKLKAQGEYSR [M10A] | 5.55
LNAELEEKMDQEAEKLKAQGEYSR [M10D] | 5.08
LNAELEEKMEQEAEKLKAQGEYSR [M10E] | 5.39
LNAELEEKMHQEAEKLKAQGEYSR [M10H] | 5.11
LNAELEEKMKQEAEKLKAQGEYSR [M10K] | 5.08
LNAELEEKMLQEAEKLKAQGEYSR [M10L] | 5.46
LNAELEEKMNQEAEKLKAQGEYSR [M10N] | 5.34
LNAELEEKMRQEAEKLKAQGEYSR [M10R] | 5.25
LNAELEEKMSQEAEKLKAQGEYSR [M10S] | 5.65
LNAELEEKMTQEAEKLKAQGEYSR [M10T] | 5.42
LNAELEEKMVQEAEKLKAQGEYSR [M10V] | 5.13
LNAELEEKMWQEAEKLKAQGEYSR [M10W] | 4.7
LNAELEEKMYQEAEKLKAQGEYSR [M10Y] | 5.15
LNAELEEKMMCEAEKLKAQGEYSR [Q11C] | 5.38
LNAELEEKMMDEAEKLKAQGEYSR [Q11D] | 5.7
LNAELEEKMMEEAEKLKAQGEYSR [Q11E] | 5.55
LNAELEEKMMFEAEKLKAQGEYSR [Q11F] | 4.14
LNAELEEKMMGEAEKLKAQGEYSR [Q11G] | 5.18
LNAELEEKMMHEAEKLKAQGEYSR [Q11H] | 4.84

Variant | protein stability index
LNAELEEKMMIEAEKLKAQGEYSR [Q11I] | 4.96
LNAELEEKMMKEAEKLKAQGEYSR [Q11K] | 4.94
LNAELEEKMMLEAEKLKAQGEYSR [Q11L] | 3.99
LNAELEEKMMMEAEKLKAQGEYSR [Q11M] | 4.18
LNAELEEKMMNEAEKLKAQGEYSR [Q11N] | 5.04
LNAELEEKMMPEAEKLKAQGEYSR [Q11P] | 4.75
LNAELEEKMMREAEKLKAQGEYSR [Q11R] | 4.76
LNAELEEKMMSEAEKLKAQGEYSR [Q11S] | 5.49
LNAELEEKMMTEAEKLKAQGEYSR [Q11T] | 5.67
LNAELEEKMMVEAEKLKAQGEYSR [Q11V] | 5.09
LNAELEEKMMWEAEKLKAQGEYSR [Q11W] | 4.22
LNAELEEKMMYEAEKLKAQGEYSR [Q11Y] | 4.86
LNAELEEKMMQAAEKLKAQGEYSR [E12A] | 4.42
LNAELEEKMMQCAEKLKAQGEYSR [E12C] | 4.38
LNAELEEKMMQFAEKLKAQGEYSR [E12F] | 3.56
LNAELEEKMMQIAEKLKAQGEYSR [E12I] | 3.28
LNAELEEKMMQKAEKLKAQGEYSR [E12K] | 4.67
LNAELEEKMMQLAEKLKAQGEYSR [E12L] | 2.92
LNAELEEKMMQNAEKLKAQGEYSR [E12N] | 4.75
LNAELEEKMMQPAEKLKAQGEYSR [E12P] | 5.4
LNAELEEKMMQRAEKLKAQGEYSR [E12R] | 4.26
LNAELEEKMMQTAEKLKAQGEYSR [E12T] | 4.4
LNAELEEKMMQVAEKLKAQGEYSR [E12V] | 4.12
LNAELEEKMMQWAEKLKAQGEYSR [E12W] | 4.42

Variant | protein stability index
LNAELEEKMMQYAEKLKAQGEYSR [E12Y] | 3.47
LNAELEEKMMQECEKLKAQGEYSR [A13C] | 4.94
LNAELEEKMMQEDEKLKAQGEYSR [A13D] | 5.8
LNAELEEKMMQEEEKLKAQGEYSR [A13E] | 5.71
LNAELEEKMMQEFEKLKAQGEYSR [A13F] | 4.49
LNAELEEKMMQEGEKLKAQGEYSR [A13G] | 4.84
LNAELEEKMMQEHEKLKAQGEYSR [A13H] | 4.85
LNAELEEKMMQEIEKLKAQGEYSR [A13I] | 4.38
LNAELEEKMMQEKEKLKAQGEYSR [A13K] | 5.08
LNAELEEKMMQEMEKLKAQGEYSR [A13M] | 5
LNAELEEKMMQEQEKLKAQGEYSR [A13Q] | 4.5
LNAELEEKMMQEREKLKAQGEYSR [A13R] | 4.99
LNAELEEKMMQESEKLKAQGEYSR [A13S] | 4.68
LNAELEEKMMQETEKLKAQGEYSR [A13T] | 5.26
LNAELEEKMMQEVEKLKAQGEYSR [A13V] | 4.64
LNAELEEKMMQEWEKLKAQGEYSR [A13W] | 4.13
LNAELEEKMMQEYEKLKAQGEYSR [A13Y] | 5.28
LNAELEEKMMQEAAKLKAQGEYSR [E14A] | 4
LNAELEEKMMQEACKLKAQGEYSR [E14C] | 4.33
LNAELEEKMMQEADKLKAQGEYSR [E14D] | 5.19
LNAELEEKMMQEAFKLKAQGEYSR [E14F] | 4.05
LNAELEEKMMQEAGKLKAQGEYSR [E14G] | 3.59
LNAELEEKMMQEAHKLKAQGEYSR [E14H] | 5.41
LNAELEEKMMQEAIKLKAQGEYSR [E14I] | 4.27

Variant | protein stability index
LNAELEEKMMQEALKLKAQGEYSR [E14L] | 4.5
LNAELEEKMMQEANKLKAQGEYSR [E14N] | 4.66
LNAELEEKMMQEAQKLKAQGEYSR [E14Q] | 5.15
LNAELEEKMMQEAEALKAQGEYSR [K15A] | 5.41
LNAELEEKMMQEAECLKAQGEYSR [K15C] | 5.03
LNAELEEKMMQEAEDLKAQGEYSR [K15D] | 5.58
LNAELEEKMMQEAEELKAQGEYSR [K15E] | 5.06
LNAELEEKMMQEAEGLKAQGEYSR [K15G] | 5.26
LNAELEEKMMQEAEHLKAQGEYSR [K15H] | 5.2
LNAELEEKMMQEAELLKAQGEYSR [K15L] | 4.99
LNAELEEKMMQEAEMLKAQGEYSR [K15M] | 5.82
LNAELEEKMMQEAENLKAQGEYSR [K15N] | 4.71
LNAELEEKMMQEAEPLKAQGEYSR [K15P] | 5.38
LNAELEEKMMQEAEQLKAQGEYSR [K15Q] | 5.41
LNAELEEKMMQEAERLKAQGEYSR [K15R] | 4.84
LNAELEEKMMQEAESLKAQGEYSR [K15S] | 4.38
LNAELEEKMMQEAEVLKAQGEYSR [K15V] | 4.78
LNAELEEKMMQEAEWLKAQGEYSR [K15W] | 4.41
LNAELEEKMMQEAEYLKAQGEYSR [K15Y] | 4.3
LNAELEEKMMQEAEKAKAQGEYSR [L16A] | 5.1
LNAELEEKMMQEAEKCKAQGEYSR [L16C] | 5.36
LNAELEEKMMQEAEKDKAQGEYSR [L16D] | 5.77
